This is an account of results in patent US20200148768A1.

The assay deals with T1, human BTN1A1-ECD-His6 (human), Q13410.
T1 chain: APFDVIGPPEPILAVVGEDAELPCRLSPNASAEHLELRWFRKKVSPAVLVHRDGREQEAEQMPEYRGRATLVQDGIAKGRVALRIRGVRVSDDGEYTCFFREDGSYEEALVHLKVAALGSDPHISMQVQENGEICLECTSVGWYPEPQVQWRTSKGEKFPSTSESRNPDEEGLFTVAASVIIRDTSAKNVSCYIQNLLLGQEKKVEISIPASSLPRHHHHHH
The experiment in a line: SPR (Biacore), antibody on mIgG capture chip, BTN1A1-ECD-His 2-64 nM. The following applies: remark: other sources report otherwise. A general note: Surface plasmon resonance follows binding to a sensor surface in real time, without labels.

B1: STC810 (antibody, V domains shown)
VH: EVQLQQSGPELVKPGASVKISCKASGYTFTHYNMDWVKQSHGKSLEWIGYIYPSNGGTGYNQKFKSRATLTVDKSSSTAYMELHSLTSEDSAVYYCARGAYHYGSSYAYWYFDVWGAGTTVTVSS
VL: DIQMTQTTSSLSASLGDRVTISCSASQDISNYLNWYQQKPDETVKLLISYTSSLHSGVPSRFSGSGSGTDYSLTISNLAPEDIATYYCQQSSKLPFTFGSGTELEIKRA
modifications: here or on the partner: N-glycosylated (PNGase F sensitive)
B1 registered a dissociation constant (Kd) of 0.0124 µM. This counts as double-digit nanomolar.

As usually defined, the Kd is the concentration at which binding is half-saturated.
